This is an account of results in article PMC5389562.

The target in test [1] is T1, mCherry-U2AF35, Q01081.
T1 chain: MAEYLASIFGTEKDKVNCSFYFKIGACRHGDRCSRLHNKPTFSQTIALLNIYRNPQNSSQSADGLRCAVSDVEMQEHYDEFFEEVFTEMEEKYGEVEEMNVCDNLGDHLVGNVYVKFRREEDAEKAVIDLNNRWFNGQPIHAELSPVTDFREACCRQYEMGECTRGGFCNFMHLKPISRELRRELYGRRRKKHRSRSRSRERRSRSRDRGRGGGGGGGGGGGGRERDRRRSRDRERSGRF
The test is described as follows: single-molecule photobleaching step counting (TIRF microscopy); nuclear extract in splicing conditions, no exogenous pre-mRNA, ATP depleted (−ATP), in the presence of ribonuclease; diluted and applied to cover slips; labeled protein spots bleaching in one or two steps. The conditions noted are these: remark: other sources report otherwise.

Test [2] has as its target T1, mCherry-U2AF35, Q01081. Put plainly: single-molecule photobleaching step counting (TIRF microscopy); nuclear extract in splicing conditions, no exogenous pre-mRNA, with ATP (+ATP), in the presence of ribonuclease; diluted and applied to cover slips; labeled protein spots bleaching in one or two steps. The note with it: remark: other sources report otherwise.

B1: mCherry-U2AF35, Q01081 1-240 (natural protein)
chain: MAEYLASIFGTEKDKVNCSFYFKIGACRHGDRCSRLHNKPTFSQTIALLNIYRNPQNSSQSADGLRCAVSDVEMQEHYDEFFEEVFTEMEEKYGEVEEMNVCDNLGDHLVGNVYVKFRREEDAEKAVIDLNNRWFNGQPIHAELSPVTDFREACCRQYEMGECTRGGFCNFMHLKPISRELRRELYGRRRKKHRSRSRSRERRSRSRDRGRGGGGGGGGGGGGRERDRRRSRDRERSGRF
Consider B1, for which, in the test with mCherry-U2AF35, Q01081 [1], the molecules bleaching in 1 step (of 2 versus 1 steps), −ATP is 189 molecules and the molecules bleaching in 2 steps (of 2 versus 1 steps), −ATP worked out at 33 molecules. In addition, in the test with mCherry-U2AF35, Q01081 [2], the molecules bleaching in 1 step (of 2 versus 1 steps), +ATP was found to be 218 molecules and the molecules bleaching in 2 steps (of 2 versus 1 steps), +ATP came out at 21 molecules.
